Earlier results as cited in paper PMC6944378.

Molecular target: MASP-2 (Homo sapiens) (UniProt O00187)
Experiment: SPR

MASP-2 (Homo sapiens), sequence (O00187 16-686): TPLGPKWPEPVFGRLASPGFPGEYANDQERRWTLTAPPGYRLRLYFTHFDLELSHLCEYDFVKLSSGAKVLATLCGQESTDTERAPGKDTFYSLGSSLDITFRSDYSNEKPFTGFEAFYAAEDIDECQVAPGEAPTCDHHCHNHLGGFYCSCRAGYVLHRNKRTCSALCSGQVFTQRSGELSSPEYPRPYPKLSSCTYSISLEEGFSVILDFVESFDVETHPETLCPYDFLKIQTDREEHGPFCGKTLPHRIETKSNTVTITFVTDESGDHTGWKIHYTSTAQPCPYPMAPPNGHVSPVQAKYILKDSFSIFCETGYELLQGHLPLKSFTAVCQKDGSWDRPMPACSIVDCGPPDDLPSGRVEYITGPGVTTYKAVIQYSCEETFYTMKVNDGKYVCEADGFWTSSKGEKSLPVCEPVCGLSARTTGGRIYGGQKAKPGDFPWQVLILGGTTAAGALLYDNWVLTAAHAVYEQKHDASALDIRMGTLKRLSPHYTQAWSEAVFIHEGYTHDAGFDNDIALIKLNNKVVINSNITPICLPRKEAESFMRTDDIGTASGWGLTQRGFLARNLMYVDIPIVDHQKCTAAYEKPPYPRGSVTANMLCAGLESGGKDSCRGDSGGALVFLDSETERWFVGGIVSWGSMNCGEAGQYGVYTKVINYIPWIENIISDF

## ecotin (from UniProt P23827)
  Kd: 24.7 nM
